Measurements taken from patent US20240024479A1, “NK CELLS OR T CELLS EXPRESSING CHIMERIC HEMATOPOIETIC GROWTH FACTOR RECEPTORS AND METHODS OF USE” (The United States of America, as represented by the …, priority 2020, published 2024).

How the values were obtained:
[1] = target: human thrombopoietin receptor (c-MPL) expressed on transduced NK or T cells (human) (UniProt P40238); assay: cell-based or functional assay
[2] = system: NK cells transduced to express MPL or MPL-IL2RB chimeric receptors; assay: Phospho-STAT5 and phospho-S6 signaling in transduced NK cells; assay type: cell-based, human
[3] = system: c-MPL transduced NK cells; assay: Proliferation of c-MPL-expressing human NK cells with thrombopoietin mimetics; assay type: cell-based; conditions: 4-5 days culture
Protocol: FIGS. 16A-16C show proliferation of human NK cells transduced to express GFP and c-MPL cultured for 4-5 days with the indicated concentrations of thrombopoietin (FIG. 16A), romiplostim (FIG. 16B), or eltrombopag (FIG. 16C). […] Mean and SEM of results from 3 blood donors are shown.
NK cells from PBMC from three blood donors were stimulated and transduced to express GFP and c-MPL, then were cultured for 4-5 days with thrombopoietin, romiplostim, or eltrombopag.

primary human NK cells [4] = assay: Chimeric MPL-IL2RB constructs (lentiviral) in primary human NK cells, cell numbers with MPL ligands; assay type: cell-based; conditions: after 4 days; medium lacking cytokines; lentiviral vectors
Description: (§1) Lentiviral and retroviral vectors expressing MPL-IL2RB and other chimeric MPL receptors: Lentiviral vectors were created by Vectorbuilder (IL, USA) by insertion of DNA sequences encoding EGFP and chimeric molecules including extracellular, transmembrane, and in some cases, proximal intracellular regions of human MPL (NM_005373.3) fused with partial intracellular domains from human IL2RB (NM_000878.5) using the linkages as shown in FIG. 17. Certain of these chimeric receptor sequences were also inserted into a gamma retroviral vector backbone also encoding EGFP or firefly luciferase. Analogous vectors encoding unmodified MPL (NM_005373.3) were used for comparison. […]
(§2) In vitro cell culture experiments with human NK cells expressing MPL-IL2RB: Approximately 2-4 days after transduction, NK cells were placed in culture with varied concentrations of eltrombopag (Selleckchem, TX, USA) or romiplostim (Amgen, CA, USA); where concentrations are not indicated, 0.33 ug/mL eltrombopag or 1.5 ng/mL romiplostim were used. […] Numbers of GFP^+ cells were quantitated after 4-6 days (or indicated durations) using a BD Fortessa flow cytometer (BD Biosciences, NJ, USA) and compared with initial numbers to determine the fold expansion.

K562 target cells = assay: Degranulation and cytokine production of NK cells expressing MPL-IL2RB or MPL with K562 targets; assay type: cell-based, human; conditions: for degranulation of cytotoxic granules in response to K562 target cells: 4-day exposure to eltrombopag or romiplostim; for production of IFN-gamma and TNF: culture with eltrombopag or romiplostim and exposure to K562 targets
Protocol: To examine degranulation, cells were washed after two hours and stained with anti-CD107a (H4A3) (BioLegend). To assay cytokine production, GolgiPlug and GolgiStop (BD Biosciences) were added at manufacturer's recommended concentrations within the first hour of co-culture with K562. After 4 hours, cells were washed and stained for cell surface markers, then stained intracellularly with mAb recognizing TNF-α (Mab 11) and IFN-γ (B27) (BD Biosciences).
(§3) In vitro cell culture experiments with human NK cells expressing MPL-IL2RB: Approximately 2-4 days after transduction, NK cells were placed in culture with varied concentrations of eltrombopag (Selleckchem, TX, USA) or romiplostim (Amgen, CA, USA); where concentrations are not indicated, 0.33 ug/mL eltrombopag or 1.5 ng/mL romiplostim were used. Medium and drugs were refreshed by addition of new medium or by changing half the culture volumes every 2-4 days. Numbers of GFP^+ cells were quantitated after 4-6 days (or indicated durations) using a BD Fortessa flow cytometer (BD Biosciences, NJ, USA) and compared with initial numbers to determine the fold expansion.

Human NK cells = assay: Matrix of IL-2 and eltrombopag concentrations, NK cell numbers after 6 days; assay type: cell-based; conditions: for proliferation in the presence of eltrombopag at high IL-2 concentrations compared with IL-2 alone: 6 days
Protocol: as §3

primary human NK cells [5] = assay: Time course of survival/proliferation of NK cells expressing MPL-IL2RB (retroviral); assay type: cell-based; conditions: varied concentrations of eltrombopag, romiplostim or thrombopoietin; retroviral vectors
Description: as §1, §2

“recombinant human thrombopoietin (rhTPO) (from UniProt P40225 22-353) (ligand)” gave a Bcl-2 RMFI in c-MPL+ NK-92 cells with TPO [1] of 64.5 RMFI, a Bcl-xL RMFI in c-MPL+ NK-92 cells with TPO [1] of 4.52 RMFI and a CD107a degranulation of GFP+ MPL+ primary NK cells against K562, TPO plus 25 U/ml IL-2 [1] of 83%. The GFP fold-expansion of c-MPL transduced primary T cells, TPO alone, day 6 [1] was 5.96 fold, the average percentage of GFP+ MPL+ cells among recovered human cells in blood and spleen of TPO-treated NSG mice (about 10% injected) [1] was 15% and the average percentage of GFP+ MPL+ cells among recovered human cells in liver and lung of TPO-treated NSG mice (about 10% injected) [1] was 20%. The expansion of c-MPL+ activated T cells, TPO plus LD IL-2, day 6 [1] was 6 to 11.4 fold, the fold change of GFP+ c-MPL+ primary NK cells, TPO plus 10 U/ml IL-2, day 6 [1] was 24.3 fold and the fold change of GFP+ c-MPL+ primary NK cells, TPO plus 25 U/ml IL-2, day 6 [1] was 34.1 fold. For the same molecule, the fold expansion of c-MPL+ NK-92 cells with TPO alone, day 8 [1] was 7 fold, the fold expansion of c-MPL+ NK-92 cells, TPO plus 1 U/ml IL-2, day 8 [1] was 23.2 fold and the mean percentage of dead Raji cells, c-MPL+ NK-92 cells exposed to TPO plus LD IL-2, E:T 1:1 [1] was 84%. It also gave a mean percentage of dead Raji cells, c-MPL+ NK-92 cells exposed to TPO plus LD IL-2, E:T 10:1 [1] of 85%, a pS6 expression (RMFI) in c-MPL+ NK-92 cells, TPO plus LD IL-2 [1] of 11.8 RMFI and a percentage of GFP+ MPL+ cells in parallel in vitro cultures of the mixed cells with only TPO [1] of 31%.

With romiplostim the “phosphorylated ribosomal protein S6 responses (mTOR activation)” value ([2]; NK cells expressing either MPL-IL2RB or MPL) was “induced”, the “phosphorylated STAT5” value ([2]; eltrombopag 0.33 μg/ml or romiplostim 1.5 ng/mL, compared with 5 U/mL IL-2) was “shorter dilution pSTAT5 response” and the “proliferation of c-MPL transduced NK cells” value [3] was “induce proliferation”.

B1: MPL: unmodified human MPL (NM_005373.3), SEQ ID NO: 1, expressed in NK cells for comparison (protein, listed as Homo sapiens)
chain: MPSWALFMVTSCLLLAPQNLAQVSSQDVSLLASDSEPLKCFSRTFEDLTCFWDEEEAAPSGTYQLLYAYPREKPRACPLSSQSMPHFGTRYVCQFPDQEEVRLFFPLHLWVKNVFLNQTRTQRVLFVDSVGLPAPPSIIKAMGGSQPGELQISWEEPAPEISDFLRYELRYGPRDPKNSTGPTVIQLIATETCCPALQRPHSASALDQSPCAQPTMPWQDGPKQTSPSREASALTAEGGSCLISGLQPGNSYWLQLRSEPDGISLGGSWGSWSLPVTVDLPGDAVALGLQCFTLDLKNVTCQWQQQDHASSQGFFYHSRARCCPRDRYPIWENCEEEEKTNPGLQTPQFSRCHFKSRNDSIIHILVEVTTAPGTVHSYLGSPFWIHQAVRLPTPNLHWREISSGHLELEWQHPSSWAAQETCYQLRYTGEGHQDWKVLEPPLGARGGTLELRPRSRYRLQLRARLNGPTYQGPWSSWSDPTRVETATETAWISLVTALHLVLGLSAVLGLLLLRWQFPAHYRRLRHALWPSLPDLHRVLGQYLRDTAALSPPKATVSDTCEEVEPSLLEILPKSSERTPLPLCSSQAQMDYRRLQPSCLGTMPLSVCPPMAESGSCCTTHIANHSYLPLSYWQQP
For B1, the “NK cell numbers in presence of eltrombopag or romiplostim” value (primary human NK cells [4]) was “greater cell numbers”, the “degranulation of cytotoxic granules in response to K562 target cells” value (K562 target cells) was “augmented degranulation” and the “production of IFN-gamma and TNF” value (K562 target cells) was “augmented production”. For the same molecule, the “proliferation in the presence of eltrombopag at high IL-2 concentrations compared with IL-2 alone” value (Human NK cells) was “deficit in proliferation”.

B2: MPL-IL2RB: chimeric receptor, SEQ ID NO: 8 (amino acids 1-582, c-MPL; amino acids 583-801, IL2RB) (protein)
chain: MPSWALFMVTSCLLLAPQNLAQVSSQDVSLLASDSEPLKCFSRTFEDLTCFWDEEEAAPSGTYQLLYAYPREKPRACPLSSQSMPHFGTRYVCQFPDQEEVRLFFPLHLWVKNVFLNQTRTQRVLFVDSVGLPAPPSIIKAMGGSQPGELQISWEEPAPEISDFLRYELRYGPRDPKNSTGPTVIQLIATETCCPALQRPHSASALDQSPCAQPTMPWQDGPKQTSPSREASALTAEGGSCLISGLQPGNSYWLQLRSEPDGISLGGSWGSWSLPVTVDLPGDAVALGLQCFTLDLKNVTCQWQQQDHASSQGFFYHSRARCCPRDRYPIWENCEEEEKTNPGLQTPQFSRCHFKSRNDSIIHILVEVTTAPGTVHSYLGSPFWIHQAVRLPTPNLHWREISSGHLELEWQHPSSWAAQETCYQLRYTGEGHQDWKVLEPPLGARGGTLELRPRSRYRLQLRARLNGPTYQGPWSSWSDPTRVETATETAWISLVTALHLVLGLSAVLGLLLLRWQFPAHYRRLRHALWPSLPDLHRVLGQYLRDTAALSPPKATVSDTCEEVEPSLLEILPKSSERTPLPLVTQLLLQQDKVPEPASLSSNHSLTSCFTNQGYFFFHLPDALEIEACQVYFTYDPYSEEDPDEGVAGAPTGSSPQPLQPLSGEDDAYCTFPSRDDLLLFSPSLLGGPSPPSTAPGGSGAGEERMPPSLQERVPRDWDPQPLGPPTPGVPDLVDFQPPPELVLREAGEEVPDAGPREGVSFPWSRPPGQGEFRALNARLPLNTDAYLSLQELQGQDPTHLV
In the case of B2, the “NK cell numbers in presence of eltrombopag or romiplostim” value (primary human NK cells [4]) is reported as “greater cell numbers than MPL-expressing NK cells”, the “fold change in cell numbers” value (primary human NK cells [5]) is reported as “greater fold change in cell numbers” and the “intracellular signals (pSTAT5, pS6) induced via receptor” value ([2]; compared with MPL) is reported as “comparable to those triggered by MPL”. The “degranulation of cytotoxic granules in response to K562 target cells” value (K562 target cells) was “augmented degranulation”, the “production of IFN-gamma and TNF” value (K562 target cells) was “augmented production” and the “proliferation in the presence of eltrombopag at high IL-2 concentrations compared with IL-2 alone” value (Human NK cells) was “comparable numbers”. For the same molecule, the “NK cell numbers after 6 days” value (Human NK cells; low concentrations of IL-2, with eltrombopag) was “greater numbers”.
